Tested on: MS2 coat protein
Assay: apparent KD of MS2 coat protein; designed switch direction (-1 OFF switch, 1 ON switch): -1; higher = weaker reporter binding
In short: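 RNA switches sharing common flanks were transcribed by stalled E. coli RNA polymerase on Illumina chips. A doubling series of SNAP-549-labelled MS2 coat protein, from 0.7 or 1.5 nM to 3 µM, was applied in Tris-HCl pH 7.5 buffer with KCl, MgCl2, BSA, DTT, tRNA and Tween-20. Each step lasted 0.8–1.5 h at the bottom of the series and 10–20 min at the top. Normalised cluster fluorescence was curve-fitted, giving apparent KD as the per-design median over clusters.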

[1] = input ligand: microRNA oligo, concentration not stated
[2] = Eterna round: R95, input ligand: FMN 200 uM
[3] = Eterna round: R95, input ligand: microRNA oligo, concentration not stated
[4] = Eterna round: R95, input ligand: none

Sequence: AGCUGUGGCCGAGGAUAUCACGAACCAUGGAAAACCAUGGAACUCCUACAUGAGGAUCACCCAUGUGAGAAGGCGGUCUCAGCA [Eli eng2 - 020] (Eterna round: R96, puzzle: Exclusion NG 2)
- apparent KD of MS2 coat protein (input ligand: FMN 200 uM): 109 nM
- apparent KD of MS2 coat protein [1]: 33.4 nM
- apparent KD of MS2 coat protein (input ligand: none): 52.1 nM

Sequence: ACAUGAGGAUCACCCAUGUCCGGCUGGUCUGUUUCGGUUGUCGAGGAUAUAGUUCGGUGUUCGCGCUAGAAGGUGGGAGCUGGG [Aenatbe mod 56] (Eterna round: R96, puzzle: Exclusion NG 3)
- apparent KD of MS2 coat protein (input ligand: FMN 200 uM): 161 nM
- apparent KD of MS2 coat protein [1]: 116 nM
- apparent KD of MS2 coat protein (input ligand: none): 147 nM

Sequence: GGCCCAUGAGGAUAUCAGUCUGGAUCAGACAAGAUCCUGACUGAGAAGGCACAUGAGGAUCACCCAUGUAGGCC [Mat - Exclusion 4 - Eli Mod - D53] (Eterna round: R97, puzzle: Exclusion 4)
- apparent KD of MS2 coat protein (input ligand: FMN 200 uM): 18.3 nM
- apparent KD of MS2 coat protein (input ligand: none): 18.7 nM

Sequence: ACGUGAUAUCUGUCGGUGGACAUGAGGAUCACCCAUGUAAGCUUUUUGCUUGUCUUAUAACCCGGUGACAGACCUUC [Inxeer] (Eterna round: R96, puzzle: Sensor v3, turn-off variant 1)
- apparent KD of MS2 coat protein (input ligand: FMN 200 uM): 35.5 nM
- apparent KD of MS2 coat protein [1]: 349 nM
- apparent KD of MS2 coat protein (input ligand: none): 35.1 nM

Sequence: AGCUAGUGCCGAGGAUAUACAUGAGGAUCACCCAUGUAGGCGUGAGGCUUUGUCUCACGCGAGAUGUAGAAGGCGGCGUUGGCA [JL ENG2 1.52] (Eterna round: R96, puzzle: Exclusion NG 2)
- apparent KD of MS2 coat protein (input ligand: FMN 200 uM): 60.5 nM
- apparent KD of MS2 coat protein [1]: 14.1 nM
- apparent KD of MS2 coat protein (input ligand: none): 21.7 nM

Sequence: GAAAAGGUAGGAUAUACGAAAAAAAAGGGUAGAAAAAAAACACAUGAGGAUCACCCAUGUAGAAGGACCAUAAG [salish99_ex2_r3_091] (puzzle: Exclusion 2)
- apparent KD of MS2 coat protein [2]: 63.3 nM
- apparent KD of MS2 coat protein [3]: 29.9 nM
- apparent KD of MS2 coat protein [4]: 29.2 nM

Sequence: UUUUAACAUGAGGAUCACCCAUGUGAGGAUAUCGAAAUUUAUAUUAAUAUUUAUUUUACGAGAAGGCACAUUUU [JMF 66] (puzzle: Exclusion 1)
- apparent KD of MS2 coat protein [3]: 104 nM

Sequence: UUAUACGUUGAGGAUAUGCGACUUUGUAUAGUUGUAGAAGGCGAUACAUGAGGAUCACCCAUGUUUAUGGGCAU [LRO-Ex6-10] (puzzle: Exclusion 6)
- apparent KD of MS2 coat protein [3]: 186 nM

Sequence: GGAAGUAGAAACCGAUCCUACAUGAGGAUCACCCAUGUAGCAAGACGUGCACGCGAAGCUCGUCAGACUACCAGAAA [salish99_TOv1_r3_009] (puzzle: Sensor v3, turn-off variant 1)
- apparent KD of MS2 coat protein [2]: 301 nM
- apparent KD of MS2 coat protein [3]: 286 nM
- apparent KD of MS2 coat protein [4]: 293 nM

Sequence: ACAUGAGGAUCACCCAUGUCCGGUUGGUCUGUUCCGGCUGUCGAGGAUAUAGUCCGGUGUUCGCGCUAGAAGGUGAGGGCUGGA [Aenatbe mod 46] (Eterna round: R96, puzzle: Exclusion NG 3)
- apparent KD of MS2 coat protein (input ligand: FMN 200 uM): 775 nM
- apparent KD of MS2 coat protein [1]: 259 nM
- apparent KD of MS2 coat protein (input ligand: none): 500 nM

Sequence: CGAGUGUAAGGAUAUUCGGCGCCAGGGAACAACCUAGCGUAGAAGAAGGUACAUGAGGAUCACCCAUGUGGUUA [Riatees] (puzzle: Exclusion 4)
- apparent KD of MS2 coat protein [3]: 151 nM

Sequence: UUAUACAAGCAAAGAUCCCACAUGAGGAUCACCCAUGUGCUCGUCUUAUAAGGUACUGUGACGAUAGUCACGGUACC [Mat - Sensor, turn-off var - Eli Mod - D102] (Eterna round: R97, puzzle: Sensor, turn-off variant 1)
- apparent KD of MS2 coat protein (input ligand: FMN 200 uM): 38.3 nM
- apparent KD of MS2 coat protein (input ligand: none): 49.9 nM

Sequence: AUAAUGUAAGGAUAUCAGUCGACUAGCCUCGGCUAGUCGACUGAGAAGGUACAUGAGGAUCACCCAUGUGAAUA [E4/16-A2] (Eterna round: R97, puzzle: Exclusion 4)
- apparent KD of MS2 coat protein (input ligand: FMN 200 uM): 228 nM
- apparent KD of MS2 coat protein (input ligand: none): 52.1 nM

Sequence: CCUCCACAUGAGGAUCACCCAUGUCAGGAUAUCGUGUGUUUUUUUUCGGUCGCGCGUGCGAGAAGGGACGUCUU (puzzle: Exclusion 1)
- apparent KD of MS2 coat protein [3]: 23.7 nM

Sequence: GCAUUGAGUGUGAGGAUAUGCUGGUCAUAAGAUCAGCAGAAGGCACAUGAGGAUCACCCAUGUGAAAACAAUGC [Mat - Exclusion 4 - JL Mod - D66] (puzzle: Brourd's mod of Exclusion 4)
- apparent KD of MS2 coat protein [2]: 93.1 nM
- apparent KD of MS2 coat protein [3]: 14.7 nM
- apparent KD of MS2 coat protein [4]: 19.2 nM

Sequence: CUGUUUUUCGCAGGAUAUGCUCCUCCAUUAUUUGCAGAAGGGCGUUGAACAUGAGGAUCACCCAUGUAUGGUAAUGACUAUUGC [JR_ExcNG1_Sub067] (Eterna round: R96, puzzle: Exclusion NG 1)
- apparent KD of MS2 coat protein (input ligand: FMN 200 uM): 23.5 nM
- apparent KD of MS2 coat protein [1]: 14.7 nM
- apparent KD of MS2 coat protein (input ligand: none): 22.4 nM

Sequence: GGACGGUUAGUUAGGAUAUGCUCUACCUCGGUAGAGCAGAAGGGACAUGAGGAUCACCCAUGUGAUAACUGUUC [Omei Ex4B B35] (Eterna round: R97, puzzle: Brourd's mod of Exclusion 4)
- apparent KD of MS2 coat protein (input ligand: FMN 200 uM): 23.1 nM
- apparent KD of MS2 coat protein (input ligand: none): 20.5 nM

Sequence: UUUUUCUGGCAAGGAUAUCCUGUGCGGUUCCGGCUCGUGUCUGUUACAUGAGGAUCACCCAUGUGGGAGAAGGUGCCUGUGGUU [Design 88] (Eterna round: R96, puzzle: Exclusion NG 2)
- apparent KD of MS2 coat protein (input ligand: FMN 200 uM): 94.2 nM
- apparent KD of MS2 coat protein [1]: 26.9 nM
- apparent KD of MS2 coat protein (input ligand: none): 35.3 nM

Sequence: UUAAUUAGCUCGCUAGAUCCUCACAUGAGGAUCACCCAUGUGCAGGAUAUCAGCUCGUGUAGAGCUGAGAAGGGCACUGCGAGC [ExNG3/10-A3] (Eterna round: R96, puzzle: Exclusion NG 3)
- apparent KD of MS2 coat protein (input ligand: FMN 200 uM): 51.6 nM
- apparent KD of MS2 coat protein [1]: 88.2 nM
- apparent KD of MS2 coat protein (input ligand: none): 108 nM

Sequence: CCGGUUGGCGCAGGAUAUACAUGAGGAUCACCCAUGUUGAUGAGGAUCACCCAUCAGUUUUUGUUGUAGAAGGGUGGCCCGGCC (Eterna round: R96, puzzle: Exclusion NG 2)
- apparent KD of MS2 coat protein [1]: 16.2 nM

Sequence: GUGUACAGAGGAUAUGCACGAGGAGUUACGAAAGUAACUUCACAUGAGGAUCACCCAUGUAGAAGGCUGUACAC [Dot plot directed v5] (puzzle: Exclusion 2)
- apparent KD of MS2 coat protein [3]: 13.9 nM

Sequence: CCAAGCUUAUUCAUUAACCACAUGAGGAUCACCCAUGUAUAGGCAAUUAUGACUGGGCCAUCUGGUGCUCGUCUUAU [Sensor-V1 #29] (Eterna round: R97, puzzle: Sensor, turn-off variant 1)
- apparent KD of MS2 coat protein (input ligand: FMN 200 uM): 16.2 nM
- apparent KD of MS2 coat protein (input ligand: none): 15.2 nM

Sequence: UUUUUCAGGCCAGAUCCUCACAUGAGGAUCACCCAUGUGCUCGUCUGUUUUCGCUCUUUCUUUUUUUUGGUUGUGCU [Level Boss var2-18] (puzzle: Sensor v3, turn-off variant 1)
- apparent KD of MS2 coat protein [2]: 174 nM
- apparent KD of MS2 coat protein [3]: 31.2 nM
- apparent KD of MS2 coat protein [4]: 259 nM

Sequence: AGCGACCAAGGAUAUACAUGAGGAUCACCCAUGUCGGCGACCUUCCUGGGAUUUCUUAGUAGAAGGUGGUCAAU [Gesodieddi] (puzzle: Exclusion 3)
- apparent KD of MS2 coat protein [3]: 35.2 nM

Sequence: AGUACUAACACGAGAGUGUUAGUACAAUAAGCUUGUGUUACAUGAGGAUCACCCAUGUCCUCAUAAGCUCGUCUUAU [Mat - Sensor v3 - Turn-off var 2 - D53] (puzzle: Sensor v3, turn-off variant 2)
- apparent KD of MS2 coat protein [2]: 133 nM
- apparent KD of MS2 coat protein [3]: 246 nM
- apparent KD of MS2 coat protein [4]: 115 nM

Sequence: UGCUAGUCAGGAUAUACGAACAUGUCAAAAGACGUGAAGGGACAUGAGGAUCACCCAUGUAGAAGGGACUAGCC [salish99_ex2_r3_008] (puzzle: Exclusion 2)
- apparent KD of MS2 coat protein [3]: 25.5 nM

Sequence: CUAUGCAAAGUAAGGAUAUGCUUCCGGAAACGGAGGCAGAAGGUACAUGAGGAUCACCCAUGUUAAACGCAUAG [Explosion 4 - Jieux - Brourd's mod of Exclusion 4] (Eterna round: R97, puzzle: Brourd's mod of Exclusion 4)
- apparent KD of MS2 coat protein (input ligand: FMN 200 uM): 16.8 nM
- apparent KD of MS2 coat protein (input ligand: none): 12.8 nM

Sequence: AAUUGCUAGCCGAUCCUCCACAUGAGGAUCACCCAUGUGCUCGUCUUGUAAUGUGCUAUCACGAAAGUGAUAGUACA [Sensor v3, turn-off variant 1 (MOD of Eli's v1-59 v.4)] (puzzle: Sensor v3, turn-off variant 1)
- apparent KD of MS2 coat protein [2]: 413 nM
- apparent KD of MS2 coat protein [3]: 13.4 nM
- apparent KD of MS2 coat protein [4]: 315 nM

Sequence: AUAACAAGCUUUUUUUUCGUCGUAUAUGACGCUCGAGUCACAUGAGGAUCACCCAUGUCUUCCUGUUUGAUUGUUGA [JR_SV3TOV2_Sub057] (puzzle: Sensor v3, turn-off variant 2)
- apparent KD of MS2 coat protein [2]: 167 nM
- apparent KD of MS2 coat protein [3]: 154 nM
- apparent KD of MS2 coat protein [4]: 173 nM

Sequence: ACUCGACAUGAGGAUCACCCAUGUGAGGAUAUGGCCUGUAUGGCGUGAGCUGGCUCUGUCAGAAGGCGCGUGGG [salish99_ex1_r4_046] (Eterna round: R97, puzzle: Exclusion 1)
- apparent KD of MS2 coat protein (input ligand: FMN 200 uM): 55.5 nM
- apparent KD of MS2 coat protein (input ligand: none): 59 nM

Sequence: UCAUGUCCAGAGGAUAUGUAGCGGGAGACCGCAACAGAAGGCUGGACAUGAGGAUCACCCAUGUGCGCCUUCAA [jl-ex3-4.28 ViennaUCT mod] (Eterna round: R97, puzzle: Exclusion 6)
- apparent KD of MS2 coat protein (input ligand: FMN 200 uM): 43 nM
- apparent KD of MS2 coat protein (input ligand: none): 352 nM

Sequence: AAUAAUAAGGAGGAUAUCGUAUCGGAAACGAUACGAGAAGGCCUAACAUGAGGAUCACCCAUGUUCCUUAAUAA [Fiskers Ex 6 - 4] (puzzle: Exclusion 6)
- apparent KD of MS2 coat protein [2]: 33.3 nM
- apparent KD of MS2 coat protein [3]: 22 nM
- apparent KD of MS2 coat protein [4]: 18.2 nM

Sequence: CAGUACUGAGGAUAUACAUGAGGAUCACCCAUGUGGGAGAUACUAGUGAGGUCGAUUAGUAGAAGGCAGUACUG [Mat X3R4 m21] (Eterna round: R97, puzzle: Exclusion 3)
- apparent KD of MS2 coat protein (input ligand: FMN 200 uM): 903 nM
- apparent KD of MS2 coat protein (input ligand: none): 184 nM

Sequence: UUUAUUAAUUAAUAUAAUAAGAUCACAUGAGGAUCACCCAUGUAGGAUAUCAGCUCGAUUAGAGCUGAGAAGGACAUAAUUAUA [ExNG3/1-B1] (Eterna round: R96, puzzle: Exclusion NG 3)
- apparent KD of MS2 coat protein [1]: 29.2 nM
